Bridges are numbered along the chain shown (N, C = ends). Where no end group is shown, it is not given here. [ ]: non-standard residue; d: D form. triazolo‑proline = not defined here
Target: HIV-1 BaL.01 Env gp160 on pseudovirus (HIV-1 BaL.01)
Test: cell-based or functional assay

**Q.** DNIPWK-NH2 (lactam 1-6; not fully specified (residue 4)) [cPT 33] was tested. Which HIV-1Bal.01 infection inhibition IC50 did it give?
**A.** 6000 nM

B1: cPT 38 (peptide)
peptide: NIPWK
modifications: N-terminus of Asn 1 acylated by succinic acid whose other carboxyl is amide-bonded to Lys 5 side-chain amine (macrocycle; replaces Asp, no primary NH2); Pro 3 is 4-(4-(4-(thiophen-2-yl)phenyl)-1H-1,2,3-triazol-1-yl)proline; C-terminal amide
**Q.** With B1 as the binder, how does the HIV-1Bal.01 cell infection inhibition IC50 read?
**A.** 882 nM

**Q.** What about the HIV-1 infection inhibition, fold decrease in potency against cPT 36 of the same binder?
**A.** 8 fold

**Q.** DNI[triazolo‑proline]W[dK]-NH2 (lactam 1-6; not fully specified; reading uncertain) [cPT 4] was tested. Which HIV-1 infection inhibition, fold decrease in activity against cPT 3 did it give?
**A.** > 50 fold

**Q.** With DNIPWK-NH2 (lactam 1-6; not fully specified (residue 4)) [cPT 32] as the binder, how does the HIV-1Bal.01 infection inhibition IC50 read?
**A.** 7300 nM

**Q.** DNI[4‑(4-((2,2'-bithiophen)-5-yl)-1H-1,2,3-triazol-1-yl)proline]WK-NH2 (lactam 1-6) [cPT 37] was tested. Which HIV-1Bal.01 infection inhibition IC50 did it give?
**A.** 405 nM

**Q.** How did the HIV-1Bal.01 infection inhibition IC50 turn out when DNI[triazolo‑Pro][benzothienylalanine]K-NH2 (lactam 1-6; not fully specified) [cPT 14] was run?
**A.** 170 nM

B2: cPT 30 (peptide)
peptide: DNIPWK-NH2
modifications: lactam 1-6; not fully specified (residue 4); also: Pro4 triazole substituent: isoquinoline moiety
**Q.** Which HIV-1Bal.01 infection inhibition IC50 does the source give for B2 here?
**A.** 5000 nM

**Q.** For [dD]NI[triazolo‑proline]WK-NH2 (lactam 1-6; not fully specified; reading uncertain) [cPT 5], which HIV-1 infection inhibition, fold decrease in activity against cPT 3 is on record?
**A.** 7 fold

**Q.** For DNIPWK-NH2 (lactam 1-6; not fully specified (residue 4)) [cPT 31], which HIV-1Bal.01 infection inhibition IC50 is on record?
**A.** 1800 nM

B3: cPT 16 (peptide)
peptide: DNIPWK-NH2
modifications: lactam 1-6; not fully specified (residue 4); also: Pro4 triazole substituent: phenyl joined through two spacer atoms
**Q.** How did the HIV-1Bal.01 infection inhibition IC50 turn out when B3 was run?
**A.** 2020 nM
